According to patent US20030186334A1, “KTS-disintegrins” (Temple University - Of the Commonwealth System of Higher …, priority 2001, published 2003):

Tests used:
α4β1 integrin = molecular target: T1, α4β1 integrin (Homo sapiens, UniProt P05556+P13612); experiment: adhesion of Jurkat cells to VCAM-1; type: cell-based; details: α4β1, VCAM-1
T1 construct: endogenous in cells; host or cells: Jurkat cells
Procedure: Adhesive ligands for the selected integrins consisted of collagen IV (0.2 μg/well), collagen I, fibronectin, or vascular cell adhesion molecule-1 (VCAM-1). Adhesive ligands in 0.02 M acetic acid were immobilized overnight at 4° C. on a 96-well plate. Plates were then blocked with 1% (w/v) BSA (bovine serum albumin) in Hank's Balanced Salt Solution (HBSS) containing 3 mM Mg^2+ at room temperature for 1-2 hours to prevent cells from non-specifically binding to the plates. α1K562, α2K562, K562, A5, and Jurkat cells expressing the α1β1, α2β1, α5β1, αIIbβ3, and α4β1 integrins respectively were labeled by incubation with 12.5 μM 5-chloromethylfluorescein diacetate (CMFDA) in HBSS for 15 minutes at 37° C. CMFDA labeled cells were then pelleted, washed and resuspended in HBSS buffer containing 3 mM Mg^2+ and 1% (w/v) BSA. […] Plates were then incubated at 37° C. for 30 minutes as indicated in Table 5 and washed three times with HBSS containing 3 mM Mg^2+ and 1% (w/v) BSA to remove unbound cells. Bound cells were lysed using 0.5% (v/v) Triton X-100 in H2O. Fluorescent CMFDA released by lysis of adherent cells in a given well was read using a Cytofluor 2350 fluorescence plate reader.
The effect of obtustatin, viperisrastatin, echistatin, and eristostatin on the binding of selected integrins to their adhesive ligands was evaluated using the cell adhesion assay described in Example 6. The integrin-expressing cells, integrins and corresponding adhesive ligands, and the results of the cell adhesion assay are shown in Table 6.

MV3 human melanoma cells = experiment: MV3 melanoma cell migration through HUVEC layer; type: cell-based; details: 3 hours
Procedure: Cell migration through an endothelial cell layer is an important event in cancer cell metastasis. The effect of obtustatin on melanoma cell migration through an endothelial cell layer in vitro was evaluated as follows. Human umbilical vein endothelial cells (HUVECs) of 3-7 passages were purchased from Cascade Biologics (Portland, Oreg.). The HUVECs were seeded into 8.0 μm pore size FALCON® HTS FluoroBlok™ inserts (Becton Dickinson, Franklin Lakes, N.J.) in serum-containing endothelial cell growth medium. The inserts were placed into the wells of a 24-well plate (Becton-Dickinson), and the HUVECs allowed to grow to confluence on the insert over 72 hours. The interior of the FluoroBlok™ inserts is referred to below as the “upper chamber,” and the interior of the well in which the insert sits is referred to as the “lower chamber.”
Twenty-four hours before the assay, the upper chambers were washed with serum-free medium, and new medium containing TNF-α (3 ng/ml) was added to activate the HUVECs. […] After 3 hours incubation at 37° C. in 5% CO2, the extent of MV3 migration into the bottom chambers was assessed using a bottom-reading Cytofluor 2350 (Millipore Inc., Bedford Mass.). The amount of fluorescence in the lower chambers is directly related to the number of MV3 cells which have migrated through the HUVEC layer from the upper chamber. […]

α9β1 integrin = molecular target: T2, α9β1 integrin (Homo sapiens, UniProt P05556+Q13797); experiment: adhesion of SW480α9 cells to VCAM-1; type: cell-based; details: α9β1, VCAM-1
T2 construct: expressed in transfected cells; host or cells: SW480α9 cells
T2 sequence (Q13797 30-1035): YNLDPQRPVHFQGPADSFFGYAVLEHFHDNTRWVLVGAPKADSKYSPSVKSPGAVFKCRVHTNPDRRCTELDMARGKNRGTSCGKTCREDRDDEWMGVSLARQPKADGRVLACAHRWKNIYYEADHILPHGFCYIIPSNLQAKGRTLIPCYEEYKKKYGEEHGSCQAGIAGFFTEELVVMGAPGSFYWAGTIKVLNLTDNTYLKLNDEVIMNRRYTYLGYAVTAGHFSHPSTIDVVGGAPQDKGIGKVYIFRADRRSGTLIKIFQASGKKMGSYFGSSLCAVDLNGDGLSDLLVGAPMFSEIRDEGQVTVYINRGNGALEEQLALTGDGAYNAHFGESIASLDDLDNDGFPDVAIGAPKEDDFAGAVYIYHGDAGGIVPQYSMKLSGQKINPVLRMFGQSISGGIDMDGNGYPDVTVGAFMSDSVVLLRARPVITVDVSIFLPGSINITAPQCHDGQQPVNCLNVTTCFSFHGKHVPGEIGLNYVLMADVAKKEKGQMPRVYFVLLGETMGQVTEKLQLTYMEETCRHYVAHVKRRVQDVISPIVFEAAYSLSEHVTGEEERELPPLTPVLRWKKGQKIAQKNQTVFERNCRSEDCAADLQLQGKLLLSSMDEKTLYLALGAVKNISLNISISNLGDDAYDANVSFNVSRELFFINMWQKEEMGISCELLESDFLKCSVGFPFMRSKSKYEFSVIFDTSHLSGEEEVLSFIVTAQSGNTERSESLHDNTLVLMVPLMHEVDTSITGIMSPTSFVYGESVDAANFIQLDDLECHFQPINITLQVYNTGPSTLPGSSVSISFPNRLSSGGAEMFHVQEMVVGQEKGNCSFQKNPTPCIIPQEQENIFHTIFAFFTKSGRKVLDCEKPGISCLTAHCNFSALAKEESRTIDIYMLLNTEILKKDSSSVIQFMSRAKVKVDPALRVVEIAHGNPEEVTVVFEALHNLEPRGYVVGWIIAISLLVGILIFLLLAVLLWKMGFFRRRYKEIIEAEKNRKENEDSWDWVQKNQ
T2 sequence (P05556 21-798): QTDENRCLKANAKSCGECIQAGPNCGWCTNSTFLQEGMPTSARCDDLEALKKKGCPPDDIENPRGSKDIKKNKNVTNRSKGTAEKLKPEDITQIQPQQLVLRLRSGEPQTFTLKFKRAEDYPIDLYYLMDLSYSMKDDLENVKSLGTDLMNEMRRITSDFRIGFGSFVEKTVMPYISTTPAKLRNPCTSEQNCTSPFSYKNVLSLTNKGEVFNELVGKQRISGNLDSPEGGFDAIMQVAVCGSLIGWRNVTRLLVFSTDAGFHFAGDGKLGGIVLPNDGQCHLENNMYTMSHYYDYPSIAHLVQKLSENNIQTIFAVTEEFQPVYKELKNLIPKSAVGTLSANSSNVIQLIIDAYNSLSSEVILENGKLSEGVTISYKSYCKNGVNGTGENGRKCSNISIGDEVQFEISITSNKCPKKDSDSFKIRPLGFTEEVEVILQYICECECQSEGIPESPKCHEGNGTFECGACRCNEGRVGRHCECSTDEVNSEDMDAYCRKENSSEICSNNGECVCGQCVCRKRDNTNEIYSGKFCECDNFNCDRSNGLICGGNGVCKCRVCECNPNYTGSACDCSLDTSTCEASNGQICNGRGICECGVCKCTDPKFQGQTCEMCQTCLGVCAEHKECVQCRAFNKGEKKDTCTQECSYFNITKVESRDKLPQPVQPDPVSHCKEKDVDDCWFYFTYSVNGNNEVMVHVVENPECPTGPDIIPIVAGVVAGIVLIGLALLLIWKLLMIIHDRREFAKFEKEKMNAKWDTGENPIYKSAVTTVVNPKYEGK

α1β1 and α2β1 integrins = experiment: adhesion of unblocked MV3 cells to immobilized collagen IV; type: cell-based, human
Procedure: (§1) The α1β1 integrin specific inhibitory effect of obtustatin was confirmed using human melanoma MV3 cells. MV3 cells express both the α1β1 and α2β1 integrins. MV3 cells adhere strongly to collagen IV through α1β1 and α2β1 integrin-mediated interactions.
Collagen IV (0.2 μg/well) in 0.02 M acetic acid was immobilized overnight at 4° C. on a 96-well plate. Plates were then blocked with 1% (w/v) BSA (bovine serum albumin) in Hank's Balanced Salt Solution (HBSS) containing 3 mM Mg^2+ at room temperature for 1-2 hours to prevent cells from non-specifically binding to the plates. […] were labeled by incubation with 12.5 μM 5-chloromethylfluorescein diacetete (CMFDA) in HBSS for 15 minutes at 37° C. CMFDA labeled MV3 cells were then pelleted, washed and resuspended in HBSS buffer containing 3mM Mg^2+ and 1% (w/v) BSA. 1×10^5 cells were then added to each well in the presence (10 μg/ml) or absence of the α1 integrin subunit specific AJH10 mAb and α2 integrin subunit specific P1E6 mAb as indicated in FIG. 5. Obtustatin was added at the concentrations indicated in FIG. 5 simultaneously with the mAbs. The plates were then incubated at 37° C. for 30 minutes and washed three times with HBSS containing 3 mM Mg^2+ and 1% (w/v) BSA to remove unbound cells. […] Fluorescent CMFDA released by lysis of adherent cells in a given well was read using a Cytofluor 2350 fluorescence plate reader. […]

α1β1 integrin = molecular target: T3, α1β1 integrin (Homo sapiens, UniProt P05556+P56199); experiment: adhesion of P1E6 blocked MV3 cells to immobilized collagen IV; type: cell-based; details: only α1β1 mediates adhesion
T3 construct: expressed in transfected cells; host or cells: α1K562 cells
T3 sequence (P56199 29-1179): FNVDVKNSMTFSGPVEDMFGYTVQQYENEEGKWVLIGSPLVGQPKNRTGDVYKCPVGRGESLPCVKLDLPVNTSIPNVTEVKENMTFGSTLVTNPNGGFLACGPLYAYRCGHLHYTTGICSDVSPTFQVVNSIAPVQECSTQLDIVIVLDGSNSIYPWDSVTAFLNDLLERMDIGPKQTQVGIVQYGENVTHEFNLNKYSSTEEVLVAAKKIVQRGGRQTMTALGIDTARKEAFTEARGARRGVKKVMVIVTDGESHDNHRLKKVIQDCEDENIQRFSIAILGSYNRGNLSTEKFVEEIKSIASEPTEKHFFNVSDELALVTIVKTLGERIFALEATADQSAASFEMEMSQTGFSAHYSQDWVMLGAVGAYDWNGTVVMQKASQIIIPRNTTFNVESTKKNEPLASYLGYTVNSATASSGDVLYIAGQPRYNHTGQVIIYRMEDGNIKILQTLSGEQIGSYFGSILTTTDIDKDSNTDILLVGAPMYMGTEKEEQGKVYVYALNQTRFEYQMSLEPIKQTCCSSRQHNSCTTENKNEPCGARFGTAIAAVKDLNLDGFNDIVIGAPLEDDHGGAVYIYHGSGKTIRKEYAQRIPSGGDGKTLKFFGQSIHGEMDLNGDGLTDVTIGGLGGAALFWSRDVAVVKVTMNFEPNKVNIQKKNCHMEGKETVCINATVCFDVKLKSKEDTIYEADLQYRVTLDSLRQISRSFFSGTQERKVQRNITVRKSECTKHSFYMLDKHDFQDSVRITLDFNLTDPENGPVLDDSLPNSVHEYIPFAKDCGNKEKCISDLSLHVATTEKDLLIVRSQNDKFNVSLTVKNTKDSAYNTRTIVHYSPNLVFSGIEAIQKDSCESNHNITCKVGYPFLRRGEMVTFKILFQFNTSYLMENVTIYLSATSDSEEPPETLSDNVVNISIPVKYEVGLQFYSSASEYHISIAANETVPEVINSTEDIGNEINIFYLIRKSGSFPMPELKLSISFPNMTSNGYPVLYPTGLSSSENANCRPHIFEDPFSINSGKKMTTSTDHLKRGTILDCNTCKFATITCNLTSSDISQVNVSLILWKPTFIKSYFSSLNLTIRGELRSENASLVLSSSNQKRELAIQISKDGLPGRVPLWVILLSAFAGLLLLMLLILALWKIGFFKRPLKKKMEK
T3 sequence (P05556 21-798): as the sequence (P05556 21-798) above
Procedure: as §1
Collagen IV (0.2 μg/well) in 0.02 M acetic acid was immobilized overnight at 4° C. on a 96-well plate. Plates were then blocked with 1% (w/v) BSA (bovine serum albumin) in Hank's Balanced Salt Solution (HBSS) containing 3 mM Mg^2+ at room temperature for 1-2 hours to prevent cells from non-specifically binding to the plates. α1K562 cells were labeled by incubation with 12.5 μM 5-chloromethylfluorescein diacetete (CMFDA) in HBSS for 15 minutes at 37° C. CMFDA labeled MV3 cells were then pelleted, washed and resuspended in HBSS buffer containing 3mM Mg^2+ and 1% (w/v) BSA. 1×10^5 cells were then added to each well in the presence (10 μg/ml) or absence of the α1 integrin subunit specific AJH10 mAb and α2 integrin subunit specific P1E6 mAb as indicated in FIG. 5. Obtustatin was added at the concentrations indicated in FIG. 5 simultaneously with the mAbs. The plates were then incubated at 37° C. for 30 minutes and washed three times with HBSS containing 3 mM Mg^2+ and 1% (w/v) BSA to remove unbound cells. […] Fluorescent CMFDA released by lysis of adherent cells in a given well was read using a Cytofluor 2350 fluorescence plate reader.

## Obtustatin (CTTGPCCRQCKLKPAGTTCWKTSLTSHYCTGKSCDCPLYPG)
α4β1 integrin
  IC50: > 10 µM
MV3 human melanoma cells; collagen IV or FGF as chemoattractants, 0 to 500 nM
  migration of MV3 cells through the HUVEC layer: inhibited migration
MV3 human melanoma cells; through HUVEC layer
  concentration giving essentially complete inhibition of MV3 cell migration: above 200 nM
α9β1 integrin
  IC50: > 10 µM
α1β1 and α2β1 integrins
  inhibition of adhesion of MV3 cells to collagen IV: comparatively insensitive
α1β1 integrin
  inhibition of adhesion of MV3 cells to collagen IV: inhibited by significantly lower obtustatin concentrations
